{
  "source": "paper PMC8298264",
  "about": "“Function of cofactor Akirin2 in the regulation of gene expression in model human neutrophil-like HL60 cells” (Bioscience Reports, 2021)",
  "molecules": {"B1": {"name": "sp¦Q9NVJ2¦ARL8B_HUMAN (protein, UniProt Q9NVJ2 1-186, looked up)", "ADP-ribosylation factor-like …": "MLALISRLLDWFRSLFWKEEMELTLVGLQYSGKTTFVNVIASGQFSEDMIPTVGFNMRKVTKGNVTIKIWDIGGQPRFRSMWERYCRGVNAIVYMIDAADREKIEASRNELHNLLDKPQLQGIPVLVLGNKRDLPNALDEKQLIEKMNLSAIQDREICCYSISCKEKDNIDITLQWLIQHSKSRRS"}, "B2": {"name": "sp¦P51159¦RB27A_HUMAN (protein, UniProt P51159 2-221, looked up)", "Ras-related protein Rab-27A": "SDGDYDYLIKFLALGDSGVGKTSVLYQYTDGKFNSKFITTVGIDFREKRVVYRASGPDGATGRGQRIHLQLWDTAGQERFRSLTTAFFRDAMGFLLLFDLTNEQSFLNVRNWISQLQMHAYCENPDIVLCGNKSDLEDQRVVKEEEAIALAEKYGIPYFETSAANGTNISQAIEMLLDLIMKRMERCVDKSWIPEGVVRSNGHASTDQLSEEKEKGACGC"}, "B3": {"name": "sp¦P16615¦AT2A2_HUMAN (protein, UniProt P16615 1-1042, looked up)", "Sarcoplasmic/endoplasmic …": "MENAHTKTVEEVLGHFGVNESTGLSLEQVKKLKERWGSNELPAEEGKTLLELVIEQFEDLLVRILLLAACISFVLAWFEEGEETITAFVEPFVILLILVANAIVGVWQERNAENAIEALKEYEPEMGKVYRQDRKSVQRIKAKDIVPGDIVEIAVGDKVPADIRLTSIKSTTLRVDQSILTGESVSVIKHTDPVPDPRAVNQDKKNMLFSGTNIAAGKAMGVVVATGVNTEIGKIRDEMVATEQERTPLQQKLDEFGEQLSKVISLICIAVWIINIGHFNDPVHGGSWIRGAIYYFKIAVALAVAAIPEGLPAVITTCLALGTRRMAKKNAIVRSLPSVETLGCTSVICSDKTGTLTTNQMSVCRMFILDRVEGDTCSLNEFTITGSTYAPIGEVHKDDKPVNCHQYDGLVELATICALCNDSALDYNEAKGVYEKVGEATETALTCLVEKMNVFDTELKGLSKIERANACNSVIKQLMKKEFTLEFSRDRKSMSVYCTPNKPSRTSMSKMFVKGAPEGVIDRCTHIRVGSTKVPMTSGVKQKIMSVIREWGSGSDTLRCLALATHDNPLRREEMHLEDSANFIKYETNLTFVGCVGMLDPPRIEVASSVKLCRQAGIRVIMITGDNKGTAVAICRRIGIFGQDEDVTSKAFTGREFDELNPSAQRDACLNARCFARVEPSHKSKIVEFLQSFDEITAMTGDGVNDAPALKKAEIGIAMGSGTAVAKTASEMVLADDNFSTIVAAVEEGRAIYNNMKQFIRYLISSNVGEVVCIFLTAALGFPEALIPVQLLWVNLVTDGLPATALGFNPPDLDIMNKPPRNPKEPLISGWLFFRYLAIGCYVGAATVGAAAWWFIAADGGPRVSFYQLSHFLQCKEDNPDFEGVDCAIFESPYPMTMALSVLVTIEMCNALNSLSENQSLLRMPPWENIWLVGSICLSMSLHFLILYVEPLPLIFQITPLNVTQWLMVLKISLPVILMDETLKFVARNYLEPGKECVQPATKSCSFSACTDGISWPFVLLIMPLVIWVYSTDTNFSDMFWS"}, "B4": {"name": "sp¦P27105¦STOM_HUMAN (protein, UniProt P27105 1-288, looked up)", "Stomatin": "MAEKRHTRDSEAQRLPDSFKDSPSKGLGPCGWILVAFSFLFTVITFPISIWMCIKIIKEYERAIIFRLGRILQGGAKGPGLFFILPCTDSFIKVDMRTISFDIPPQEILTKDSVTISVDGVVYYRVQNATLAVANITNADSATRLLAQTTLRNVLGTKNLSQILSDREEIAHNMQSTLDDATDAWGIKVERVEIKDVKLPVQLQRAMAAEAEASREARAKVIAAEGEMNASRALKEASMVITESPAALQLRYLQTLTTIAAEKNSTIVFPLPIDMLQGIIGAKHSHLG"}, "B5": {"name": "sp¦O60488¦ACSL4_HUMAN (protein, UniProt O60488 1-711, looked up)", "Long-chain-fatty-acid--CoA …": "MKLKLNVLTIILLPVHLLITIYSALIFIPWYFLTNAKKKNAMAKRIKAKPTSDKPGSPYRSVTHFDSLAVIDIPGADTLDKLFDHAVSKFGKKDSLGTREILSEENEMQPNGKVFKKLILGNYKWMNYLEVNRRVNNFGSGLTALGLKPKNTIAIFCETRAEWMIAAQTCFKYNFPLVTLYATLGKEAVVHGLNESEASYLITSVELLESKLKTALLDISCVKHIIYVDNKAINKAEYPEGFEIHSMQSVEELGSNPENLGIPPSRPTPSDMAIVMYTSGSTGRPKGVMMHHSNLIAGMTGQCERIPGLGPKDTYIGYLPLAHVLELTAEISCFTYGCRIGYSSPLTLSDQSSKIKKGSKGDCTVLKPTLMAAVPEIMDRIYKNVMSKVQEMNYIQKTLFKIGYDYKLEQIKKGYDAPLCNLLLFKKVKALLGGNVRMMLSGGAPLSPQTHRFMNVCFCCPIGQGYGLTESCGAGTVTEVTDYTTGRVGAPLICCEIKLKDWQEGGYTINDKPNPRGEIVIGGQNISMGYFKNEEKTAEDYSVDENGQRWFCTGDIGEFHPDGCLQIIDRKKDLVKLQAGEYVSLGKVEAALKNCPLIDNICAFAKSDQSYVISFVVPNQKRLTLLAQQKGVEGTWVDICNNPAMEAEILKEIREAANAMKLERFEIPIKVRLSPEPWTPETGLVTDAFKLKRKELRNHYLKDIERMYGGK"}, "B6": {"name": "sp¦P51148¦RAB5C_HUMAN (protein, UniProt P51148 1-216, looked up)", "Ras-related protein Rab-5C": "MAGRGGAARPNGPAAGNKICQFKLVLLGESAVGKSSLVLRFVKGQFHEYQESTIGAAFLTQTVCLDDTTVKFEIWDTAGQERYHSLAPMYYRGAQAAIVVYDITNTDTFARAKNWVKELQRQASPNIVIALAGNKADLASKRAVEFQEAQAYADDNSLLFMETSAKTAMNVNEIFMAIAKKLPKNEPQNATGAPGRNRGVDLQENNPASRSQCCSN"}, "B7": {"name": "sp¦Q15645¦PCH2_HUMAN (protein, UniProt Q15645 1-432, looked up)", "Pachytene checkpoint protein …": "MDEAVGDLKQALPCVAESPTVHVEVHQRGSSTAKKEDINLSVRKLLNRHNIVFGDYTWTEFDEPFLTRNVQSVSIIDTELKVKDSQPIDLSACTVALHIFQLNEDGPSSENLEEETENIIAANHWVLPAAEFHGLWDSLVYDVEVKSHLLDYVMTTLLFSDKNVNSNLITWNRVVLLHGPPGTGKTSLCKALAQKLTIRLSSRYRYGQLIEINSHSLFSKWFSESGKLVTKMFQKIQDLIDDKDALVFVLIDEVESLTAARNACRAGTEPSDAIRVVNAVLTQIDQIKRHSNVVILTTSNITEKIDVAFVDRADIKQYIGPPSAAAIFKIYLSCLEELMKCQIIYPRQQLLTLRELEMIGFIENNVSKLSLLLNDISRKSEGLSGRVLRKLPFLAHALYVQAPTVTIEGFLQALSLAVDKQFEERKKLAAYI"}, "B8": {"name": "sp¦Q9H9B4¦SFXN1_HUMAN (protein, UniProt Q9H9B4 2-322, looked up)", "Sideroflexin-1": "SGELPPNINIKEPRWDQSTFIGRANHFFTVTDPRNILLTNEQLESARKIVHDYRQGIVPPGLTENELWRAKYIYDSAFHPDTGEKMILIGRMSAQVPMNMTITGCMMTFYRTTPAVLFWQWINQSFNAVVNYTNRSGDAPLTVNELGTAYVSATTGAVATALGLNALTKHVSPLIGRFVPFAAVAAANCINIPLMRQRELKVGIPVTDENGNRLGESANAAKQAITQVVVSRILMAAPGMAIPPFIMNTLEKKAFLKRFPWMSAPIQVGLVGFCLVFATPLCCALFPQKSSMSVTSLEAELQAKIQESHPELRRVYFNKGL"}, "B9": {"name": "sp¦Q9H939¦PPIP2_HUMAN (protein, UniProt Q9H939 1-334, looked up)", "Proline-serine-threonine …": "MTRSLFKGNFWSADILSTIGYDNIIQHLNNGRKNCKEFEDFLKERAAIEERYGKDLLNLSRKKPCGQSEINTLKRALEVFKQQVDNVAQCHIQLAQSLREEARKMEEFREKQKLQRKKTELIMDAIHKQKSLQFKKTMDAKKNYEQKCRDKDEAEQAVSRSANLVNPKQQEKLFVKLATSKTAVEDSDKAYMLHIGTLDKVREEWQSEHIKACEAFEAQECERINFFRNALWLHVNQLSQQCVTSDEMYEQVRKSLEMCSIQRDIEYFVNQRKTGQIPPAPIMYENFYSSQKNAVPAGKATGPNLARRGPLPIPKSSPDDPNYSLVDDYSLLYQ"}, "B10": {"name": "sp¦P21964¦COMT_HUMAN (protein, UniProt P21964 1-271, looked up)", "Catechol O-methyltransferase": "MPEAPPLLLAAVLLGLVLLVVLLLLLRHWGWGLCLIGWNEFILQPIHNLLMGDTKEQRILNHVLQHAEPGNAQSVLEAIDTYCEQKEWAMNVGDKKGKIVDAVIQEHQPSVLLELGAYCGYSAVRMARLLSPGARLITIEINPDCAAITQRMVDFAGVKDKVTLVVGASQDIIPQLKKKYDVDTLDMVFLDHWKDRYLPDTLLLEECGLLRKGTVLLADNVICPGAPDFLAHVRGSSCFECTHYQSFLEYREVVDGLEKAIYKGPGSEAGP"}, "B11": {"name": "sp¦P61019¦RAB2A_HUMAN (protein, UniProt P61019 2-212, looked up)", "Ras-related protein Rab-2A": "AYAYLFKYIIIGDTGVGKSCLLLQFTDKRFQPVHDLTIGVEFGARMITIDGKQIKLQIWDTAGQESFRSITRSYYRGAAGALLVYDITRRDTFNHLTTWLEDARQHSNSNMVIMLIGNKSDLESRREVKKEEGEAFAREHGLIFMETSAKTASNVEEAFINTAKEIYEKIQEGVFDINNEANGIKIGPQHAATNATHAGNQGGQQAGGGCC"}, "B12": {"name": "sp¦Q9BVC6¦TM109_HUMAN (protein, UniProt Q9BVC6 34-243, looked up)", "Voltage-gated monoatomic …": "QSRRDFAPPGQQKREAPVDVLTQIGRSVRGTLDAWIGPETMHLVSESSSQVLWAISSAISVAFFALSGIAAQLLNALGLAGDYLAQGLKLSPGQVQTFLLWGAGALVVYWLLSLLLGLVLALLGRILWGLKLVIFLAGFVALMRSVPDPSTRALLLLALLILYALLSRLTGSRASGAQLEAKVRGLERQVEELRWRQRRAAKGARSVEEE"}, "B13": {"name": "sp¦Q9Y3A6¦TMED5_HUMAN (protein, UniProt Q9Y3A6 28-229, looked up)", "Transmembrane emp24 …": "FTPSLDSDFTFTLPAGQKECFYQPMPLKASLEIEYQVLDGAGLDIDFHLASPEGKTLVFEQRKSDGVHTVETEVGDYMFCFDNTFSTISEKVIFFELILDNMGEQAQEQEDWKKYITGTDILDMKLEDILESINSIKSRLSKSGHIQTLLRAFEARDRNIQESNFDRVNFWSMVNLVVMVVVSAIQVYMLKSLFEDKRKSRT"}},
  "data": [
    {"system": "human HL60 cells", "test": "SWATH-MS proteomics, differential protein representation, akirin2 KO vs WT HL60 cells", "assay_type": "cell-based", "conditions": "KO vs WT HL60 cells; sheet \"Under-represented in KO\"", "summary_of_the_method": "(§1)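 Proteins from WT and akirin2 KO HL60 cells (n=3 biological replicates) were FASP trypsin-digested and analyzed by SWATH-MS DIA with variable windows against an IDA-derived spectral library. Identifications at 1% global FDR; quantities normalized to total area sums of all detected proteins.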", "values": [
      {"molecule": "B1", "Fold Change": 0.5417, "Log (Fold Change)": -0.2663},
      {"molecule": "B2", "Fold Change": 0.5507, "Log (Fold Change)": -0.2591},
      {"molecule": "B3", "Fold Change": 0.5392, "Log (Fold Change)": -0.2682},
      {"molecule": "B4", "Fold Change": 0.5492, "Log (Fold Change)": -0.2603},
      {"molecule": "B5", "Fold Change": 0.5384, "Log (Fold Change)": -0.2689},
      {"molecule": "B6", "Fold Change": 0.5435, "Log (Fold Change)": -0.2648}
    ]},
    {"system": "human HL60 cells", "test": "SWATH-MS proteomics, differential protein representation, akirin2 KO vs WT HL60 cells", "assay_type": "cell-based", "conditions": "KO vs WT; akirin2 KO vs WT HL60 cells; sheet \"Under-represented in KO\"", "summary_of_the_method": "as §1", "values": [
      {"molecule": "B7", "Fold Change": 0.5524, "Log (Fold Change)": -0.2577},
      {"molecule": "B8", "Fold Change": 0.5707, "Log (Fold Change)": -0.2436},
      {"molecule": "B9", "Fold Change": 0.5689, "Log (Fold Change)": -0.2449},
      {"molecule": "B10", "Fold Change": 0.567, "Log (Fold Change)": -0.2464},
      {"molecule": "B11", "Fold Change": 0.5636, "Log (Fold Change)": -0.249},
      {"molecule": "B12", "Fold Change": 0.5517, "Log (Fold Change)": -0.2583}
    ]},
    {"system": "human HL60 cells", "test": "SWATH-MS proteomics, differential protein representation, akirin2 KO vs WT HL60 cells", "assay_type": "cell-based", "conditions": "akirin2 KO vs WT HL60 cells; sheet \"Under-represented in KO\"", "summary_of_the_method": "as §1", "values": [
      {"molecule": "B13", "Fold Change": 0.2554, "Log (Fold Change)": -0.5928}
    ]}
  ]
}
